Source: patent CN114989309A

Biological target: T1, 抗原表位融合多肽AFBMG
T1 sequence: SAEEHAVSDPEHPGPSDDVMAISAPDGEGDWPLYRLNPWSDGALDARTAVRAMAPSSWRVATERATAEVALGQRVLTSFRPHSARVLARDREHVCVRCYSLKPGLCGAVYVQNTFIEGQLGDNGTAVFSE
Assay: colloidal gold test strip with gold-labelled Nano-AF; dilution series of AFBMG from 1 mg/mL, three repeats

B1: 黄曲霉毒素纳米抗体Nano-AF (VHH)
VHH: QLQLGGSGGGLVQPGGLVQACAASGSTFAGFRAMGWRQAFRQAREFVAAITWSGASTYYTDSVKGRFTISRDNAKNTVYLQMNNLESLKPEDTAVYYCAGFMYYASNYCRYWGQGTQVTVSS
With B1 as the binder, how does the 最低检测限 read?
Its 最低检测限 is 10 ng/mL.
